Results on 2 molecules are retold here after paper PMC10899793, “Toxin release by conditional remodelling of ParDE1 from Mycobacterium tuberculosis leads to gyrase inhibition” (Nucleic Acids Research, 2023).

As a reminder, the stoichiometry N is a count of units in the complex or per binding partner.

Data set [1] addresses Mycobacterium tuberculosis DNA gyrase holoenzyme GyrB2A2 (Mycobacterium tuberculosis) (UniProt P9WG47).
The data set “crystal structure” deals with the molecule itself. As to the kind of experiment: crystal structure.
In data set [2] the target is T1, ParE1 toxin of Mycobacterium tuberculosis H37Rv (Mycobacterium tuberculosis H37Rv, UniProt P9WHG7 1-98).
T1 construct: also called Rv1959c; not shown: 6His-SUMO, N-terminal, cleaved
T1 sequence: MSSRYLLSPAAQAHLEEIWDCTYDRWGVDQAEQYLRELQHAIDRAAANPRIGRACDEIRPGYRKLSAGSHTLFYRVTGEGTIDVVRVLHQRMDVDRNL
Briefly: SEC. The settings on record: both partners purified.

The target of data set [3] is T1, ParE1 toxin of Mycobacterium …. Briefly: mass photometry. The settings on record: both partners purified.

Mycobacterium tuberculosis DNA gyrase holoenzyme GyrB2A2 (Mycobacterium tuberculosis), sequence (P9WG47 whole entry, chain 1 of 2): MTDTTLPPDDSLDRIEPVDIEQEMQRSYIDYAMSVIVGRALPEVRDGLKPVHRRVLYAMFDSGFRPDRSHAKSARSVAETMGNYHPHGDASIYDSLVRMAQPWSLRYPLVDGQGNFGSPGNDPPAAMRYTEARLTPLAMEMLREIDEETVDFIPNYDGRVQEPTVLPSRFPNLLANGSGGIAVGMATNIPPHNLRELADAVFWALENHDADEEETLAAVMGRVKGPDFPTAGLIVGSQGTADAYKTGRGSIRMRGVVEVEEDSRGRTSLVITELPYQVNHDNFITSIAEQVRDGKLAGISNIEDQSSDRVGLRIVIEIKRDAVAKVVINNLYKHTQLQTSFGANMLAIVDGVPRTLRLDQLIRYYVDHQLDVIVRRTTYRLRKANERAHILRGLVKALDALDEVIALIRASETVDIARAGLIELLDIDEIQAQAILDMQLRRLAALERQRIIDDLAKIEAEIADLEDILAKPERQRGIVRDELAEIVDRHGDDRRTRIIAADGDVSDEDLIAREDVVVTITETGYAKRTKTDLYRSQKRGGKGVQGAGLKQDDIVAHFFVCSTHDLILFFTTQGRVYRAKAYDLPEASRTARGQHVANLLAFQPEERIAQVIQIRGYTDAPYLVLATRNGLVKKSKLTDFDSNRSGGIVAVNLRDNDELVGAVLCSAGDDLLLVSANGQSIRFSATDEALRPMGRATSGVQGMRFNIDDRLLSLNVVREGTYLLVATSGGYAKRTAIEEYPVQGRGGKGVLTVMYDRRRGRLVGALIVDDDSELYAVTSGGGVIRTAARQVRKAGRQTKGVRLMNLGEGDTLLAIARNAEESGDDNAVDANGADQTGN
Mycobacterium tuberculosis DNA gyrase holoenzyme GyrB2A2 (Mycobacterium tuberculosis), sequence (P9WG45 whole entry, chain 2 of 2, further chain): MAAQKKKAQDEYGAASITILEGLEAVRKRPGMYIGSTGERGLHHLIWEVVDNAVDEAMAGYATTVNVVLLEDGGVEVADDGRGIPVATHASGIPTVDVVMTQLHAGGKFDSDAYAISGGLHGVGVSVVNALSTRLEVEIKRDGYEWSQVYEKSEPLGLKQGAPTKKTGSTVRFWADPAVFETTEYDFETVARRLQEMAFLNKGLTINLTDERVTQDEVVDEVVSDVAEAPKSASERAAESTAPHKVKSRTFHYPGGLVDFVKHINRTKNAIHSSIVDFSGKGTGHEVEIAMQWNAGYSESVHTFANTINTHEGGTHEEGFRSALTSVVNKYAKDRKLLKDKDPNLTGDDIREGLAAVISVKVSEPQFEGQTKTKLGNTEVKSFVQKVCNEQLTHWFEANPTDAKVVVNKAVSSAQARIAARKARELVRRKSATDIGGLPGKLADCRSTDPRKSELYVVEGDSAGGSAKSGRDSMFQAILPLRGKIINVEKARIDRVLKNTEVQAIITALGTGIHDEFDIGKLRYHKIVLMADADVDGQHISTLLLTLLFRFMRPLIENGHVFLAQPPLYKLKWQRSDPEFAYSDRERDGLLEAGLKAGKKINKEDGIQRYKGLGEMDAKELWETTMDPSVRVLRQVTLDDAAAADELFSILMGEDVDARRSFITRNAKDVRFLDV

B1: ParE2 toxin of Mycobacterium tuberculosis H37Rv (natural protein)
chain: MTRRLRVHNGVEDDLFEAFSYYADAAPDQIDRLYNLFVDAVTKRIPQAPNAFAPLFKHYRHIYLRPFRYYVAYRTTDEAIDILAVRHGMENPNAVEAEISGRTFE
Take B1: in data set [1], the linearisation of supercoiled pSG483 in the M. tuberculosis gyrase DNA relaxation (cleavage) assay; ParE2 titrated against constant GyrB2A2 (31.25 nM); value at the highest concentration tested (% of substrate pSG483 linearised) was found to be 50.

B2: ParD1 antitoxin of Mycobacterium tuberculosis H37Rv (natural protein)
chain: MGKNTSFVLDEHYSAFIDGEIAAGRYRSASEVIRSALRLLEDRETQLRALREALEAGERSGSSTPFDFDGFLGRKRADASRGR
notes: Antitoxin ParD1, gene parD1 (rv1960c), M. tuberculosis H37Rv; printed mass 9.21 kDa; residues are numbered up to R83; also called primary ParD1; auxiliary ParD1
Regarding B2, the entries for the “stoichiometry N” value (in “crystal structure”; in data set [2]; in data set [3]) were 4, 2 ParD1 per ParE1 (4:2 heterohexamer) and 1 ParD1 per ParE1 (2:2 heterotetramer), respectively.
